Results on six molecules are retold here after PMC3164656, “Burkholderia cenocepacia BC2L-C Is a Super Lectin with Dual Specificity and Proinflammatory Activity” (PLoS Pathogens, 2011).

For test [1], the target named is BC2L-C-ct, C-terminal domain of BC2L-C (Burkholderia cenocepacia). Kind of test: SEC-MALS; Superdex 200, 20 mM Tris, 250 mM NaCl, 1 mM CaCl2, pH 7.5; loaded at 4.2 mg/mL BC2L-C, 7.5 mg/mL BC2L-C-nt, 10.7 mg/mL BC2L-C-ct; MALLS with refractometry. In general terms: Size exclusion chromatography separates by hydrodynamic size, large species first.
For test [2], the target named is BC2L-C, soluble lectin from Burkholderia cenocepacia (whole protein) (Burkholderia cenocepacia) (UniProt B4EH87). The test is described as above.
Test [3] concerns BC2L-C-nt. Also on record: method as in PMID 20152153. The following applies: cited from earlier work.
Test [4] has as its system B. cenocepacia K56-2. Kind of test: Mannose-dependent lectin extraction from bacterial surface (Western blot). Also on record: species or system Burkholderia cenocepacia. The following applies: 50 mM D-mannose, 5 min, FLAG-tagged lectins. The protocol: Culture supernatant proteins were precipitated with trichloroacetic acid as described previously The protein concentration was determined by Bradford assay (Bio-Rad) and 4 µg of protein were loaded on a 18% SDS-PAGE gel. After electrophoresis, gels were transferred to nitrocellulose membranes for immunoblot analysis. The membranes were incubated with the 4RA2 monoclonal antibody (Neoclone) cross-reacting with the B. cenocepacia RNA polymerase subunit alpha (cytosolic protein, cell lysis control) and the FLAG M2 monoclonal antibody (Sigma). The Alexa Fluor 680 goat anti-mouse IgG (Molecular Probes) was used as a secondary antibody. Detection was performed using the Odyssey Infrared Imager (LI-COR Biosciences).
Overnight cultures were diluted to an OD600 nm of 0.03 in 50 mL LB and grown at 37°C for 8 h. Cells were then centrifuged at 5000 g for 10 min. The pellet was washed twice with 25 mL of phosphate buffered saline (PBS) and finally resuspended in 1.5 mL PBS. Five hundred µL aliquots were placed into two eppendorf tubes to which 500 µL of PBS or 500 µL of 100 mM D-mannose made in PBS (50 mM final concentration) was added. Samples were gently mixed by inversion and incubated for 5 min at room temperature. Samples were centrifuged at 6000 g for 5 min, supernatants were collected (800 µL) and filter-sterilized using […] filters. […]
For orientation: In western blotting, separated proteins are transferred to a membrane and probed.

The target of test [5] is BC2L-C-nt, N-terminal TNF-α-like domain of BC2L-C (Burkholderia cenocepacia). Kind of test: SEC-MALS; Superdex 200, 20 mM Tris, 250 mM NaCl, 1 mM CaCl2, pH 7.5; loaded at 4.2 mg/mL BC2L-C, 7.5 mg/mL BC2L-C-nt, 10.7 mg/mL BC2L-C-ct; MALLS with refractometry.
Test [6] deals with BEAS-2B cells. Kind of test: IL-8 production by respiratory epithelial cells (ELISA). The test is classed as cell-based, human. The following applies: 0.3 µM, 15 h, ELISA of supernatants. How it is done: BC2L-C and its separate domains were used for the stimulation of the human bronchial cell line BEAS-2B obtained from the American Type Cell Collection (Manassas, VA). Cells were maintained in serial passage in F-12K culture medium supplemented with 10% FCS, 1% penicillin and streptomycin, 1% glutamine and 10 mM HEPES in 75 cm2 culture flasks and seeded at 5×10^4 on 24-well plates 3 days before stimulation. In all experiments, BEAS-2B cells were stimulated during 15 hours with the different agonists in a 300 µL medium. IL-8 concentrations in cell culture supernatants were determined using a Duo-Set ELISA kit. Duo-Set ELISA kit and the recombinant human TNF-α were obtained from R&D Systems (Minneapolis, MN).
For orientation: An ELISA detects its analyte on a solid surface through an enzyme-linked reagent.

As a reminder, the stoichiometry N is the number of molecules, sites or subunits per partner or assembly. The molecule “BC2L-C-ct, C-terminal domain of BC2L-C (domain or fragment)” came in with a stoichiometry N in test [1] of 2.

“BC2L-C, soluble lectin from Burkholderia cenocepacia (whole protein) (from UniProt B4EH87 1-129) (natural protein)” yielded a stoichiometry N in test [2] of 6.

Regarding `C[C@H](O)[C@@H](O)[C@@H](O)[C@H](O)C=O` [fucose], in test [3], the “binding of isolated BC2L-C-nt domain” value is reported as “binds strongly to fucose”.

With `OC[C@H]1OC(O)[C@@H](O)[C@@H](O)[C@@H]1O` (stereo partly drawn) [D-Man, D-mannose], in test [4], the “release of surface-bound lectins into supernatant” value is “BC2L-B and -C lectins are released into the supernatant”.

Consider “BC2L-C-nt, N-terminal TNF-α-like domain of BC2L-C (domain or fragment)”, for which, in test [5], the stoichiometry N is 3.

B1: BC2L-C: soluble hexameric lectin from Burkholderia cenocepacia with fucose- and mannose/heptose-binding domains, recombinant (protein)
chain: MADSQTSSNRAGEFSIPPNTDFRAIFFANAAEQQHIKLFIGDSQEPAAYHKLTTRDGPREATLNSGNGKIRFEVSVNGKPSATDARLAPINGKKSDGSPFTVNFGIVVSEDGHDSDYNDGIVVLQWPIG
Regarding B1, the IL-8 production entry in test [6] is “markedly increase in IL-8 production”.
